The values below come from publication PMC8703697.

Assay [1] deals with human factor XIIa (human) (UniProt P00748).
In assay [2] the target is human factor XIa (human) (UniProt P03951).
The target in assay [3] is human plasma Kallikrein (human) (UniProt P03952).
Assay [4] deals with human thrombin (FIIa) (human) (UniProt P00734).
Assay [5] shares this target. This is another data set of the same source.
Assay [6] has the same target. The source holds these as a separate data set.
For assay [7] the target is unchanged. The source holds these as a separate data set.

Chain of UniProt P03951 (P03951 19-387, chain 1 of 2): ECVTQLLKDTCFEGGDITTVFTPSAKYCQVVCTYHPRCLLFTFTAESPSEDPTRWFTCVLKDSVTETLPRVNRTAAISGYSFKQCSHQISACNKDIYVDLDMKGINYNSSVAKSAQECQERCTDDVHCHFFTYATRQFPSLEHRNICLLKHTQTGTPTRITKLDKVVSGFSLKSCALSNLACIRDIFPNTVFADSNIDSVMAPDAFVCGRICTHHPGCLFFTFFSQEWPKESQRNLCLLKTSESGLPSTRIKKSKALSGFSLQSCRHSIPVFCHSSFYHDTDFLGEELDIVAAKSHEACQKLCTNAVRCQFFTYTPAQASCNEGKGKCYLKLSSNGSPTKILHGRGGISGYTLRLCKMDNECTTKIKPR
Chain of UniProt P03951 (P03951 388-625, chain 2 of 2): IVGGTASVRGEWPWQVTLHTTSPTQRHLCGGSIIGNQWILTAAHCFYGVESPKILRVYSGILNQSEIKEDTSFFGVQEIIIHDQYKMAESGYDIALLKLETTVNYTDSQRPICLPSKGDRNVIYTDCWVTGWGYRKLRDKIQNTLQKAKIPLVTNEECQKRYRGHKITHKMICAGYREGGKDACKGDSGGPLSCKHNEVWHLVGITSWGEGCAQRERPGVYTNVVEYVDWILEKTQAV
Chain of UniProt P00748 (P00748 20-372, chain 1 of 2): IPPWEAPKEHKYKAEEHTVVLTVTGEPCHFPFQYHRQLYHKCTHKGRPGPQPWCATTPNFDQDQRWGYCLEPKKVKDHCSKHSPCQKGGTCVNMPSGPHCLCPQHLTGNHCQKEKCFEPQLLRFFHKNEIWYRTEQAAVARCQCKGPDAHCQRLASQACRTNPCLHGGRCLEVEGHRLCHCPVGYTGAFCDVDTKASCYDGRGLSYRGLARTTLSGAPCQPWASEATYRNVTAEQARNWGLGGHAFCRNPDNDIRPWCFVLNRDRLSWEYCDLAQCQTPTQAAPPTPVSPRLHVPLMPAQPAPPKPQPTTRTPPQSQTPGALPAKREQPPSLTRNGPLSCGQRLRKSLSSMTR
Chain of UniProt P00748 (P00748 373-615, chain 2 of 2): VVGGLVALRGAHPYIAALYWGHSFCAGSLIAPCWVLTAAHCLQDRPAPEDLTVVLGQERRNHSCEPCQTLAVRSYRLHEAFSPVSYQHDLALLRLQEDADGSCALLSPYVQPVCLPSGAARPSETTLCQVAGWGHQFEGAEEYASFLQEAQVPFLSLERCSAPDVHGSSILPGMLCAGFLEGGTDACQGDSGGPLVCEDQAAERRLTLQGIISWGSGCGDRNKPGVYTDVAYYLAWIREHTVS
Chain of UniProt P03952 (P03952 20-390, chain 1 of 2): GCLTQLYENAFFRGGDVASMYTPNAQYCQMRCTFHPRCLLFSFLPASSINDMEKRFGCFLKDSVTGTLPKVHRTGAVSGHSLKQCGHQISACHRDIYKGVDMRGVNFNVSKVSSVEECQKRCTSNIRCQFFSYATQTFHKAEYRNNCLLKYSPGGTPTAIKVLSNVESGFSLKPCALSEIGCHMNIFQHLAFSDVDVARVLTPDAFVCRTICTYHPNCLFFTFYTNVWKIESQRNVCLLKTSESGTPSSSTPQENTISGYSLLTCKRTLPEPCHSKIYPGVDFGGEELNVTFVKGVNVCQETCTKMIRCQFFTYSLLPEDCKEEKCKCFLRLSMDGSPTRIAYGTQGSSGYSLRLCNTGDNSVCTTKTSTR
Chain of UniProt P03952 (P03952 391-638, chain 2 of 2): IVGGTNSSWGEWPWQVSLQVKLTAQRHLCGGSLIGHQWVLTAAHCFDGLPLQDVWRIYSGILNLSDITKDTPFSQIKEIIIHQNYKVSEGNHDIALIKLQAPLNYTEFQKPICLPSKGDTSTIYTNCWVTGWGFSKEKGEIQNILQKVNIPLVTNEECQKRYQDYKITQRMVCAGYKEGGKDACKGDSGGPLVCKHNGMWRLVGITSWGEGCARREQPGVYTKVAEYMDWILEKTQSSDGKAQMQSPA

On to “recombinant Dromaserpin (rDromaserpin) (natural protein)”, for which, in assay [1], the inhibition of FXIIa (15 nM) activity on S-2302 with 1 µM and 5 µM rDromaserpin (no effect at 1 µM, ~29% at 5 µM) was 29%. Besides, the inhibition of FXIa (3.7 nM) activity (BIOPHEN kit) with 1 µM and 5 µM rDromaserpin (no effect at 1 µM, ~48% at 5 µM) in assay [2] was determined as 48%. Also, the decrease of Kallikrein (10 nM) catalytic activity on S-2302 with 1 µM and 5 µM rDromaserpin (~30% and ~76%) in assay [3] turned out to be 76%. The decrease of thrombin (2U) catalytic activity on S-2238 with 1 µM and 5 µM rDromaserpin (87% and 89%), 15 min pre-incubation at 37 °C in assay [4] was determined as 89%. Further, the residual activity of thrombin (2U) on the chromogenic substrate S-2238 with rDromaserpin from 0.02 to 1 µM; IC50 in assay [5] was 160 nM. Moreover, the residual activity of thrombin (2U) with 0.2 µM rDromaserpin and heparin from 0 to 7.2 µM (48.11% without heparin, 12.5% at 2.4 µM heparin, less acceleration from 5.6 µM) in assay [6] was found to be 48.1%. Also, in assay [7], the reduction of thrombin-induced aggregation of washed human platelets; 10 µM rDromaserpin pre-incubated 10 min at 37 °C with thrombin came to 88.2%.
